Among the data in patent US20140100120, “METHODS OF X-APTAMER GENERATION AND COMPOSITIONS […]” (AM Biotechnologies, LLC, published 2014) are Kd values, retold here.

CD44 hyaluronic acid binding domain (CD44-HABD), sequence (P16070 20-178, one chain of several): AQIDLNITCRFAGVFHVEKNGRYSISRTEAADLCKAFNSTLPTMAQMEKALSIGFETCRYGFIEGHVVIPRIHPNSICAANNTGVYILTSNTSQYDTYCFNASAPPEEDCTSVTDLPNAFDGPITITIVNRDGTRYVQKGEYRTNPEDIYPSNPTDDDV

The first data set concerns the target CD44 hyaluronic acid binding domain (CD44-HABD) (UniProt P16070 P16070:20-178). The data set is described as follows: filter; 20 mM Tris pH 8.0, 150 mM NaCl, RT. As to conditions: label: biotin; hairpin (predicted). The protocol: The equilibrium binding constants of selected XAs for CD44-HABD were determined by a filter binding assay. The biotinylated XAs (1 nM) were incubated with varying concentrations of CD44-HABD in 50 μL of 20 mM Tris, pH 8.0, 150 mM NaCl for 40 min at room temperature and then transferred to a 96-well dot-blot apparatus and filtered under vacuum onto nitrocellulose membranes, which retain the CD44-HABD along with any bound XAs. The amount of biotinylated XA retained at each spot was determined by chemiluminescent detection using the Chemiluminescent Nucleic Acid Detection Module (Thermo Scientific) following the manufacturer's instructions. The chemiluminescent signals were collected on a Chemimager (Alpha Innotech). Image analysis and quantification of spot intensities were performed using ImageJ (version 1.42q). Binding analysis was based on the spot intensities on the nitrocellulose membranes with subtraction of background spot intensity due to the buffer effect from all the data points. Saturation binding curves were generated by using GraphPad Prism with curve fits assuming a single binding site. The NH₂ XA column lists KDs for XAs where X=amino-dU. The ADDA XA column lists KDs for XAs where X=ADDA-dU.
The equilibrium binding constants of the small constructs were determined by the filter binding assay. The derived equilibrium binding constants of the above small XA constructs are shown below in Table 4.
On to CTGTTAGGGAACCAAGACGA (ssDNA, X=amino-dU; phosphodiester [n positions 2,4 = modified dU]) [Motif 2 phospho NH2], for which the Kd was 43.1 nM.
Still for that read-out and setting: for CTGTTAGGGAACCAAGACGA (ssDNA, fully monothioate PS; X=amino-dU [n positions 2,4 = modified dU]) [Motif 2 thio NH2] the value was 48 nM; for CTGTTAGGGAACCAAGACGA (ssDNA, fully monothioate PS; X=ADDA-dU [n positions 2,4 = modified dU]) [Motif 2 thio ADDA], 15.5 nM; for CTGTTAGGGAACCAAGACGA (ssDNA, X=ADDA-dU; phosphodiester [n positions 2,4 = modified dU]) [Motif 2 phospho ADDA], 2 nM.

Staying with this data set, now noted: label: biotin; stem-loop (predicted).
As to GCCTGCAAGACGTCCATAGACAC (ssDNA, fully monothioate PS; X=amino-dU [n positions 13 = modified dU]) [Motif 3 thio NH2], the Kd was 81.2 nM.
On the same count and under the same terms, with AGATACAGTAAACGTCCATAGACAC (ssDNA, fully monothioate PS; X=amino-dU [n positions 4,15 = modified dU]) [Motif 5 thio NH2] the figure was 18 nM.
For AGATACAGTAAACGTCCATAGACAC (ssDNA, X=ADDA-dU; phosphodiester [n positions 4,15 = modified dU]) [Motif 5 phospho ADDA], the equilibrium dissociation constant (Kd) was 3.9 nM.
Consider AGATACAGTAAACGTCCATAGACAC (ssDNA, fully monothioate PS; X=ADDA-dU [n positions 4,15 = modified dU]) [Motif 5 thio ADDA], for which the Kd was 10.1 nM.
With AGATACAGTAAACGTCCATAGACAC (ssDNA, X=amino-dU; phosphodiester [n positions 4,15 = modified dU]) [Motif 5 phospho NH2], the Kd is 13.8 nM.
Turning to GCCTGCAAGACGTCCATAGACAC (ssDNA, X=ADDA-dU; phosphodiester [n positions 13 = modified dU]) [Motif 3 phospho ADDA], the Kd was 19.5 nM.
As to GATCTGCAATGTAACCATAGACA (ssDNA, X=ADDA-dU; phosphodiester [n positions 10 = modified dU]) [Motif 4 phospho ADDA], the Kd is 2.1 nM.
With GATCTGCAATGTAACCATAGACA (ssDNA, X=amino-dU; phosphodiester [n positions 10 = modified dU]) [Motif 4 phospho NH2], the Kd is 6.8 nM.
For the molecule GATCTGCAATGTAACCATAGACA (ssDNA, fully monothioate PS; X=amino-dU [n positions 10 = modified dU]) [Motif 4 thio NH2], the Kd is 35.4 nM.
Take GCCTGCAAGACGTCCATAGACAC (ssDNA, X=amino-dU; phosphodiester [n positions 13 = modified dU]) [Motif 3 phospho NH2]: the dissociation constant (Kd) was 27.6 nM.
The same measure, in the same setting: for GCCTGCAAGACGTCCATAGACAC (ssDNA, fully monothioate PS; X=ADDA-dU [n positions 13 = modified dU]) [Motif 3 thio ADDA] the value was 64.8 nM; for GATCTGCAATGTAACCATAGACA (ssDNA, fully monothioate PS; X=ADDA-dU [n positions 10 = modified dU]) [Motif 4 thio ADDA], 13.6 nM.

Usually Kd stands for the constant that tells how readily two partners part at equilibrium.
